# Assay: soluble on expression in E. coli; label from the status in PepcDB or PDB records
row,Sequence,soluble on expression in E. coli
1,GPGSMRLSLLRRFCEYVPKGAPTQVSLSVETPYGVTRAFRMTEMAAAAADAERDAKGFFYLPRMDYDVGQGVAPLMSRKQFDVQYNVFHKAAVDRLNAHTLGSELEGHNLNVVIRNSSFDASHAVIHAAASEHFNYCFWYRSLRPWGTAVPARLKEELQLQYSQNGTLDAVKEVQRLFTVAALSQQSAGGWVYLVWTGKAFDVIPFDHGTCPIGSDLIPLLALNTHESARCYDYPLAAEDEEGDEVERFVRNFFKTCNWRLVEHYFLQCGRA,not soluble
2,GPGSMRPNVMLTIPKNTLQVFDMGLDFRSYLSRVDVNGLPVLGNVVSYEASKLTEVFTPTVGLLVTILHMLAHCTSSCSAVAWLKAYDAIQKMYIENSEEENTEAVRYAVEARAAIKDYLTGDAVPGTNLLCEKLLTLLDQQSGIHGSQAPSQRKVPREPKGAFCNLHLSDQKCYQDFACNQLHLQEVKTVRHRKIFYMRLIEVLKAEKRSRQQIRHRIKDSVFFARYGNKVTVQCQGKWIPFFKTVYTDGRLEQALRTQHFACGDSACADENCLGIHPQDRRVTTSSKLMDLNNPDVVLQQIEEEAERHLSMEGAFNDHEAEHISAAASSSSMPSPTSEMWRNTVREYVRQTGIPQVEADESLLRTLQDANVLATPTASTESLTPLLDELDMRTFSSSSPVREHPNAEIG,not soluble
3,GPGSMRSAQLPSKLSSAAGSCKHWVVSVPNSSESYRCFCSLIDRALQPGTCHPYSVRFRLEHLLPADWSLLLGWCRRLTSCGGSFTYTSPGDISEQTESVGAVDDSEGHPAVVNAAFMHVVERCHGDFVPNNMIYHELQRRYTVYAPASPPPPEGPEDFTSFLGALQDSVCDGCLASLSEGDGNVGEDPLASQVPSLEATKHNQKVLGVGAAASMESEAHRQQGELLFNFFPHRVVVSDGIPCHSTHFVVMVNLKPVVPWHLMVVPIRCVGTLSALSAAEMEDLGHMIHLTISVLSHVLVKPAVTGTGDTSSNGGSRVERGCSPHSIGSPVPASVVGGGGFSIAIQQGELAGQTVPHLHVHVIPFDPRGKLAGEPEDEEQQRRQPPRTGAQMRKETEFLRPHFVRLANEKNMRGICATCG,not soluble
4,GPGSMRTCASTLSHLCAQGPLRGSMHVTLHALVRFCAHVASSLRSGQATLHPSLPLRFSHPLRLPSARFSHSTGVLSLALPVMQHTHIHTLTHTYSSIYRRFTARLRLSDSTCYTQGSTHTHTQSICFSIHSPLSLSLSETSALLGAPSSSSFSATSPAYRVRTASSCNRLPDGHKHFRKYIYIYIYIYWALSRISLGASADLPWNVRIHRVRMTATEYQKLIGERRLSPEEEENLVQRLYFRQMKLTEQREEERRAILERTRAQMQKHISKDEEGRLVSRMYDQQVERFANSKAERDRKLEEEMHKNDKKMDSSEIDDQVRRIYEEELKRSQARREELYSRYMPTAEAKKIGKKELKGCVERLSHVDWEKRDEELFKKYVYPYDPKTTKISRDDEQAMANRLSTTKGAG,not soluble
5,GPGSMSFAQNGTAPSTPAQQSKPEPDASPVAGEGSTSGRCAFDPEALRNLIVNYLPPLMNEAQVYELFGQFGRIESVKIIYDKITGESRGYGFVKYYFFFSATYAVSCLNRFEIGGKKLKVAYANAPAAKEAYDMLRLSAVALSVQQQQAMQSMYYHQMVLAQEQQGASAASSVAASAPMVGGADYGPYMNRVGGGYAMRQRESGAGYAQGMYPGMVAGGSVYLAGPFASGSRIVTPAIAPIGF,not soluble
6,GPGSMSSERYVDGDLGEPFNSAEPLTLPVVVQLLRGRRDTSLDHPASRLIEKTCRQVELMQETCADECRVQRVMETRLRLVNKNNRQQMNAHLGNFVVGEDGFATLPPESDDFLDTAEEEAMKMFEVVALGTLQPKTADEARELIPSLGRFEPADLNKVLEMLDSL,not soluble
7,GPGSMTDFPKLNRIKSDDENMEKIHVAARKGQTDEVRRLIETGVSPTIQNRFGCTALHLACKFGCVDTAKYLASVGEVHSLWHGQKPIHLAVMANKTDLVVALVEGAKERGQMPESLLNECDEREVNEIGSHVKHCKGQTALHWCVGLGPEYLEMIKILVQLGASPTAKDKADETPLMRAMEFRNREALDLMMDTVPSKSSLRLDYANKQGNSHLHWAILINWEDVAMRFVEMGIDVNMEDNEHTVPLYLSVRAAMVLLTKELLQKTDVFLIQACPYHNGTTVLPDRVVWLDFVPAAADPSKQEVLQLLQEKLDEVVRSLNTGAGGAVKRKKKAAPAVKRMKLAPSAPVRTRSRSRARSSAVSK,soluble
8,GPGSMTDLRGVLPSKVISTPSGFVECSTHNVRRKAECCEMKAVLNADMEVIDYICVCKHPFTCKSASERQSNGLAAASNARRNAPDGERSGTAPLVIDASSTSMTAQSQHHHHGGQPSAAGAADKEAGVSTLFAVSFYDASRSTPGPSASATAAAVSPKPSAKDGEDREDEKGKDTRANAMRISDSDSDTDDGDSLDNSPSFTAGATPATAATAASFPAAPRERSRYYDSLQNASTGGHAPPAKVCWGCGMTGHEKPACPNALCRTCHQKRGPYGSPHRCTPVVTPSPLIVYPTPSEWRAATQKTAAAAGEPNGMAAVRCVACNEYGHFDCSTVVLPSSYALVASSSPGPAAVPHTLVPTCCFCGVRGHTVFDCQQREHVNPDYFERRNQLFADSVRRGSGITAAGAPFSNSGSSSGYGHPSQQQRQQRFYGSPTGGAPLSSSSFTRYGNGRGGGGSGQRRERDWCDNREQRVGGSQYSNSRREGSAYNNDSYGGDRDHQRRRYESPSFSRAGGGPAPSSSLLMHGRDRCQEGGQRHHEERSRDSYGGSHQRYSEGEHGGAGSRGHGQRSHYSQQSQHSHRHGSSRRGGRLGDSGYYSDDNLF,not soluble
9,GPGSMTEYLKDIGRTKPGDPMPPINLGPYDNPLLWNMLDPFGADRGHQRRPMSVSRDFMELHNVPIIFRDQCVHRWVPFHRCLKNLKPVTWGTANCHEFEEAWMICRAYETYRNQLLKTKFMELTKDYTAEDKKFFPSLLHLSVPTYMNSFYWTMAASQRLSGWDERDPANPMTWREPNRALMRAEFSPTNWEQGNLTNATGHKLITDDLVFDMVPGFPLPEDKRPETLY,not soluble
10,GPGSMTKGGSSVAEDAQLRAADTFEEAQTLLDVMLKQFHTMERNRTDPFISKVVIAGELKEDSSRPFSQVFQELIDAATVKSRNPLSEQSCPPSPPSGIFLDYGTHFVGLFEAVDRYVAELLILMDAECKSTEEPIFSDVRVLYLNDDVVPLGGQYVCFVDKIPGVVAQSEKVDVPEDVIAEMVADDVRKLTKLLSLVLSEGVSKRKNFLDNARTSHPTLFPNTSSLKMYVKSDLFLTLDEYHRVFGKLPELVRDVEVNHPVDQPLKY,soluble
11,GPGSMTKLFHHNITAIHEKFQPPFSVDTFRRIARLVLARVEHMPPPDYYDGSAVWRRVRHYMRQWIKKPDPSEVCMVPLLDLVNHSNRPNCGLRVGPSSVVGGKGAITLYSIARINPGQEICRHYNFAINRPNALFRYGFLPFDLISIVEHDAIDEYLVKNQHMLREESEEVRMKQQKEREEIQKLEKIFQHARSGR,not soluble
12,GPGSMTSKKAAKEKDEYTPQERLTAAALEYKKLEGHNQSSIERMYGALSSPFRVSNKPCEVPRAAVLRCFEEILGKTNNGENGSTDNLAETTVVGRSISGGNNADGRVLLSSDSRFPSVHRCYDAVLQYESCVVEKTLAQHHSLLAGFEARQLQEAESANEVPKAVASGA,not soluble
13,GPGSMTTSGALFPSLVPGSRGASNKYLVEFRAGKMSLKGTTVTPDKRKGLVYIQQTDDSLIHFCWKDRTSGNVEDDLIIFPDDCEFKRVPQCPSGRVYVLKFKAGSKRLFFWMQEPKTDQDEEHCRKVNEYLNNPPMPGALGASGSSGHELSALGGEGGLQSLLGNMSHSQLMQLIGPAGLGGLGGLGALTGPGLASLLGSSGPPGSSSSSSSRSQSAAVTPSSTTSSTRATPAPSAPAAASATSPSPAPSSGNGASTAASPTQPIQLSDLQSILATMNVPAGPAGGQQVDLASVLTPEIMAPILANADVQERLLPYLPSGESLPQTADEIQNTLTSPQFQQALGMFSAALASGQLGPLMCQFGLPAEAVEAANKGDVEAFAKAMQNNAKPEQKEGDTKDKKDEEEDMSLD,soluble
14,GPGSMVAKQHFLAAVKMTPARGAAAALSPPQTAEVVGRTAAGGKGCSGSFVDRRLENVMARAREMGWTSPESLIESLKAAQWHSHGKTPAIAEAEAAALPSPHVPAFKPDALSSSSDRHAQPRLPQPRDETPHQARKGAAVSGANSSITECWSGHGPVSQQPHTPHQGADACRAFPSSRTESADSAMRVEATRVLCSGGAAHAGLPSESLLSPPAAESSRVAGTGHAYPPAPLQGHEGLVSSGLTNPLTRLTMPTSATAGAAAAQPLIELEQELVKLRHLVRTLESKQFVHAHQSSAQASELQAQCAELQHQQLAQAKELRLALARLISVGNELEGLRDVKTHLQMQLTASQQESARLRDALLMGETRARDVQ,not soluble
15,GPGSMVEYKSAAAIAQALFTTHGKDSTTFNRLLRDRIGKRGDRFTEDHPDTFLYIERSKNANVVAYTARFVDAETKKPVPSGVGRDCIIKHDGPVHAYFITLDPQQMEKLRAKGRTSLIDDLNFVQRKMAYGCSGKSFDVASASRECDNPADFKRWMSAFDPYTLSYVALAKYPTLLLTLKPVKDSNGEENDTAVALIAVIGGELSVVKKIYVSSTEPKHFYELPTVNYIEVFGVSVDKGSDTYEKKAP,not soluble
16,GPGSMVLSSPVITLRRMVHFSSTPTSLHSRSSTSPLDALVDEVSSFIPATFTSIPQISRQLPPELMERVCDPVCGGLRSLLSRYAERFESKMIGQVHVVRSRLRQRESAAPCRRANAGAEVGYSFAVPSSPSGNAAAAASKSNSVDVQAVFTELQQLFPSYLVPVKALWTTVPEAEEQQVRARVLDALRSPQHRAWLTFHEHPAHCASHSTSADEAELTHVLEHGYVQLRLNPAAGDDRAAAPMPQSPNTRMAGHEVQPYEWYRVARVLPTTATELLFSGELQEQATLLLPPGRDVWHVLLSAPALFELRYAAPTTVDSGQQARVPTLSAEGSSLAPVCVKYDATPPPSLCASVYVRFRLEERFVPPDMAGAREESILRELETLTAERAASACGLSSRQRRRKRKLQRQLAYLRNPTPYFDERVLAQHLFDLLPLRDGVHQSALLGSLPQPAVQAFPQNVTELLQARNDLFQLSDVRHGILVRRADAPKVAQRSIESVTGEEILLHIFSSYSLRSDPQEGTTISRSLPRLPRLVRERLFTMQDIIAEVLLLYPDKVEVLADRSPSISSLSLSSSPHTSEADERALRELRTVRGRRDFLVPFRFVGEWQAKLTEKYTKQQTKDAVKSMRARQRSESSHRRPARY,not soluble
17,GPGSMVRKNMYDGWSYERLRQQRNRAHFLLEDPYRFVTVLLHNGKLYAIDSPCYHASGPLGEGELMDLEDSHTAASVACLRCPWHNILVAIDTGEIVEVHPDTSAVRGKDDGGRELAAPSYPLRPHWEASAGSVRLSRGNVVQRTHKVSLDESNGIMTIEIEDEATMRRHPLPSDAAAGILESGALTMQIFDIKSKGMS,soluble
18,GPLETDLVAVWDVALSDGVHKIEFEHGTTSGKRVVYVDGKEEIRKEWMFKLVGKETFYVGAAKTKATINIDAISGFAYEYTLEINGKSLKKYMEDRSKTTNTWVLHMDGENFRIVLEKDAMDVWCNGKKLETAGEFVDDGTETHFSIGNHDCYIKAVSSGKRKEGIIHTLIVDNREIPEIAS,soluble
19,GPLGSAAAATPAVRTVPQYKYAAGVRNPQQHLNAQPQVTMQQPAVHVQGQEPLTASMLASAPPQEQKQMLGERLFPLIQAMHPTLAGKITGMLLEIDNSELLHMLESPESLRSKVDEAVAVLQAHQAKEAAQKAVNSATGVPTV,soluble
20,GPLGSDHVLHVTFPKEWKTSDLYQLFSAFGNIQISWIDDTSAFVSLSQPEQVKIAVNTSKYAESYRIQTYAEYMGRKQEEKQIKRKWTEDSWKEADSKRLN,soluble
21,GPLGSGEEEPLPPRWSMQVAPNGRTFFIDHASRRTTWIDPRNGRAS,soluble
